Values joined by “and” are separate entries in the source; they are usually repeats but may differ in a detail not shown here. Equal values may be shown once.
T1: mouse FcγRIII (mouse, UniProt P08508 31-215)
T1 construct: also called mFcγRIII; mFcgRIII
T1 chain: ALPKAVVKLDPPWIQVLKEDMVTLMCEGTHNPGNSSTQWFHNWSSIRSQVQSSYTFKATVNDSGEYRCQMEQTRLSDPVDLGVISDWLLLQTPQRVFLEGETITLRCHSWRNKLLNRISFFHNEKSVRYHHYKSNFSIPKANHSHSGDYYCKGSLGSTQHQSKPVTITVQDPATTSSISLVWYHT

T2: mouse FcγRII (mouse, UniProt P08101 30-210)
T2 construct: also called mFcγRII; mFcgRII
T2 sequence: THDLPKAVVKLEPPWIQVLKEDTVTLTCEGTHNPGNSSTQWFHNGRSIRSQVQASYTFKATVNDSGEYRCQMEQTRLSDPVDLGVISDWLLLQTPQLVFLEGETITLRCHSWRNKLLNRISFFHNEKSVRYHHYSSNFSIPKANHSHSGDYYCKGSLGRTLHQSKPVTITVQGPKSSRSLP

T3: mouse FcγRIII (mouse, UniProt P08508 31-215)
T3 construct: Extracellular domain with C-terminal His tag, made in FreeStyle 293 cells; also called mFcγRIII; mFcgRIII
T3 chain: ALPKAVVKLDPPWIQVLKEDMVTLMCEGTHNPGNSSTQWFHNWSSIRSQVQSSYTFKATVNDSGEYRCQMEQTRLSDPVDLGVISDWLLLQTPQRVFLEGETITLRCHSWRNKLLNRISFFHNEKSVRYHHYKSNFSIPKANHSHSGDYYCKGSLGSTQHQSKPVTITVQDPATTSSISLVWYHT

T4: mouse FcγRII (mouse, UniProt P08101 30-210)
T4 construct: Extracellular domain with C-terminal His tag, made in FreeStyle 293 cells; also called mFcγRII; mFcgRII
T4 sequence: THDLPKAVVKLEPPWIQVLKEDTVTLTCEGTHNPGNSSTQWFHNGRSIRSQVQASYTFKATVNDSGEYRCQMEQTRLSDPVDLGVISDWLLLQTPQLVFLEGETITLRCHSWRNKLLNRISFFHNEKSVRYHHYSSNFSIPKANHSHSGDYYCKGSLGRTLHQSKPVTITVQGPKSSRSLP


Key:
mouse FcγRIII [1] = biological target: T1, mouse FcγRIII; assay: SPR Biacore T200, KD ratio
From the text: (§1) The antibody H chain variable region used was the variable region H237 (SEQ ID NO: 1) of the H chain VH3-IgG1 of the anti-IL-6 receptor antibody Fv4-IgG1 described in WO2009/125825. The antibody L chain commonly used was the L chain MRAL-k0 (SEQ ID NO: 2) of the anti-IL-6 receptor antibody tocilizumab. […] The resulting variant group was designated as MB110 variants. These variants were expressed and purified by the method of Reference Example 1 and evaluated for their binding to mFcγRII and mFcγRIII by the method of Reference Example 2 using Biacore T200.
(§2) Each altered antibody was analyzed for its interaction with each Fcγ receptor prepared above using Biacore T100 (GE Healthcare Japan Corp.), Biacore T200 (GE Healthcare Japan Corp.), Biacore A100, or Biacore 4000. The running buffer used was HBS-EP+ (GE Healthcare Japan Corp.). The assay temperature was set to 25° C. The sensor chips used were chips prepared by immobilizing Protein L (ACTIGEN or BioVision) onto Series S Sensor Chip CM5 (GE Healthcare Japan Corp.) or Series S Sensor Chip CM4 (GE Healthcare Japan Corp.) by the amine coupling method.
(§3) In order to calculate the KD value of each altered antibody for FcγR, kinetic analysis was conducted according to the following method: first, the antibody of interest was captured onto any of these chips and allowed to interact with mFcγR diluted with a running buffer. For the obtained sensorgram, the assay results were globally fit into the 1:1 Langmuir binding model using Biacore Evaluation Software to calculate an association rate constant ka (L/mol/s) and a dissociation rate constant kd (1/s). From these values, the dissociation constant KD (mol/L) was calculated.

mouse FcγRII [2] = biological target: T2, mouse FcγRII; assay: SPR Biacore T200, KD ratio
From the text: as §1, §2, §3

mouse FcγRIII [3] = biological target: T1, mouse FcγRIII; assay: SPR Biacore 4000, KD ratio
mouse FcγRII [4] = biological target: T2, mouse FcγRII; assay: SPR Biacore 4000, KD ratio
mouse FcγRIII [5] = biological target: T3, mouse FcγRIII; assay: SPR (Biacore), KD of H237-mIgG1/MRAL-k0 (same run) / KD of variant
Procedure: as §2, §3

mouse FcγRII [6] = biological target: T4, mouse FcγRII; assay: as above
Procedure: as §2, §3

mouse FcγRIII [7] = biological target: T3, mouse FcγRIII; assay: SPR (Biacore), antibody captured on Protein L
Procedure: as §2, §3

mouse FcγRII [8] = biological target: T4, mouse FcγRII; assay: SPR (Biacore), antibody captured on Protein L
Procedure: as §2, §3

Row | Relative mFcγRIII-binding activity (MB110 = 1) (mouse FcγRIII [1]) [fold] | relative mFcγRIII-binding activity (mIgG1 = 1) (mouse FcγRIII [1]) [fold] | Relative mFcγRII-binding activity (MB110 = 1) (mouse FcγRII [2]) [fold] | relative mFcγRII-binding activity (mIgG1 = 1) (mouse FcγRII [2]) [fold] | relative mFcγRIII-binding activity (mIgG1 = 1) (mouse FcγRIII [3]) [fold] | relative mFcγRII-binding activity (mIgG1 = 1) (mouse FcγRII [4]) [fold] | relative mFcγRIII-binding activity (mIgG1 = 1) (mouse FcγRIII [5]) [fold] | relative mFcγRII-binding activity (mIgG1 = 1) (mouse FcγRII [6]) [fold] | Kd (mouse FcγRIII [7]) | Kd (mouse FcγRII [8]) | Binder
1 | 1 | 4 | 1 | 12.3 | 4.45 | 15.1 |  |  |  |  | H237-MB110/MRAL-k0 (antibody, mouse IgG1, kappa, copies: 2 + 2) heavy: QVQLQESGPGLVKPSETLSLTCAVSGHSISHDHAWSWVRQPPGEGLEWIGFISYSGITNYNPSLQGRVTISRDNSKNTLYLQMNSLRAEDTAVYYCARSLARTTAMDYWGEGTLVTVSSAKTTPPSVYPLAPGSAAQTNSMVTLGCLVKGYFPEPVTVTWNSGSLSSGVHTFPAVLQSDLYTLSSSVTVPSSTWPSETVTCNVAHPASSTKVDKKIVPRDCGCKPCICTVPEVSDVFIFPPKPKDVLTITLTPKVTCVVVDISKDDPEVQFSWFVDDVEVHTAQTQPREEQFNSTFRSVSELPIMHQDWLNGKEFKCRVNSAAFPAPIEKTISKTKGRPKAPQVYTIPPPKEQMAKDKVSLTCMITDFFPEDITVEWQWNGQPAENYKNTQPIMDTDGSYFVYSKLNVQKSNWEAGNTFTCSVLHEGLHNHHTEKSLSHSPGK light: not shown
2 |  |  |  |  |  |  | 0.1 | 0.94 | 5320 nM | 345 nM | H237-MB687/MRAL-k0 (antibody, mouse IgG1, kappa, copies: 2 + 2) heavy: QVQLQESGPGLVKPSETLSLTCAVSGHSISHDHAWSWVRQPPGEGLEWIGFISYSGITNYNPSLQGRVTISRDNSKNTLYLQMNSLRAEDTAVYYCARSLARTTAMDYWGEGTLVTVSSAKTTPPSVYPLAPGSAAQTNSMVTLGCLVKGYFPEPVTVTWNSGSLSSGVHTFPAVLQSDLYTLSSSVTVPSSTWPSETVTCNVAHPASSTKVDKKIVPRDCGCKPCICEPPEVELVFIFPPKPKDVLTITLTPKVTCVVVDISKDDPEVQFSWFVDDVEVHTAQTQPREEQFNSTFRSVSELPIMHQDWLNGKEFKCRVNSAAFPAPIEKTISKTKGRPKAPQVYTIPPPKEQMAKDKVSLTCMITDFFPEDITVEWQWNGQPAENYKNTQPIMDTDGSYFVYSKLNVQKSNWEAGNTFTCSVLHEGLHNHHTEKSLSHSPGK light: not shown
3 |  |  |  |  |  |  | 0.11 | 0.7 | 3020 nM | 306 nM | H237-MB599/MRAL-k0 (antibody, mouse IgG1, kappa, copies: 2 + 2) heavy: QVQLQESGPGLVKPSETLSLTCAVSGHSISHDHAWSWVRQPPGEGLEWIGFISYSGITNYNPSLQGRVTISRDNSKNTLYLQMNSLRAEDTAVYYCARSLARTTAMDYWGEGTLVTVSSAKTTPPSVYPLAPGSAAQTNSMVTLGCLVKGYFPEPVTVTWNSGSLSSGVHTFPAVLQSDLYTLSSSVTVPSSTWPSETVTCNVAHPASSTKVDKKIVPRDCGCKPCICEVPEESFVFIFPPKPKDVLTITLTPKVTCVVVDISKDDPEVQFSWFVDDVEVHTAQTQPREEQFNSTFRSVSELPIMHQDWLNGKEFKCRVNSAAFPAPIEKTISKTKGRPKAPQVYTIPPPKEQMAKDKVSLTCMITDFFPEDITVEWQWNGQPAENYKNTQPIMDTDGSYFVYSKLNVQKSNWEAGNTFTCSVLHEGLHNHHTEKSLSHSPGK light: not shown
4 |  |  |  |  |  |  | 0.1 | 0.55 | 3230 nM | 389 nM | H237-MB601/MRAL-k0 (antibody, mouse IgG1, kappa, copies: 2 + 2) heavy: QVQLQESGPGLVKPSETLSLTCAVSGHSISHDHAWSWVRQPPGEGLEWIGFISYSGITNYNPSLQGRVTISRDNSKNTLYLQMNSLRAEDTAVYYCARSLARTTAMDYWGEGTLVTVSSAKTTPPSVYPLAPGSAAQTNSMVTLGCLVKGYFPEPVTVTWNSGSLSSGVHTFPAVLQSDLYTLSSSVTVPSSTWPSETVTCNVAHPASSTKVDKKIVPRDCGCKPCICEVPEESSVDIFPPKPKDVLTITLTPKVTCVVVDISKDDPEVQFSWFVDDVEVHTAQTQPREEQFNSTFRSVSELPIMHQDWLNGKEFKCRVNSAAFPAPIEKTISKTKGRPKAPQVYTIPPPKEQMAKDKVSLTCMITDFFPEDITVEWQWNGQPAENYKNTQPIMDTDGSYFVYSKLNVQKSNWEAGNTFTCSVLHEGLHNHHTEKSLSHSPGK light: not shown
5 |  |  |  |  |  |  | 0.15 | 0.84 | 2100 nM | 255 nM | H237-MB617/MRAL-k0 (antibody, mouse IgG1, kappa, copies: 2 + 2) heavy: QVQLQESGPGLVKPSETLSLTCAVSGHSISHDHAWSWVRQPPGEGLEWIGFISYSGITNYNPSLQGRVTISRDNSKNTLYLQMNSLRAEDTAVYYCARSLARTTAMDYWGEGTLVTVSSAKTTPPSVYPLAPGSAAQTNSMVTLGCLVKGYFPEPVTVTWNSGSLSSGVHTFPAVLQSDLYTLSSSVTVPSSTWPSETVTCNVAHPASSTKVDKKIVPRDCGCKPCICTVPEESDVDIFPPKPKDVLTITLTPKVTCVVVDISKDDPEVQFSWFVDDVEVHTAQTQPREEQFNSTFRSVSELPIMHQDWLNGKEFKCRVNSAAFPAPIEKTISKTKGRPKAPQVYTIPPPKEQMAKDKVSLTCMITDFFPEDITVEWQWNGQPAENYKNTQPIMDTDGSYFVYSKLNVQKSNWEAGNTFTCSVLHEGLHNHHTEKSLSHSPGK light: not shown
6 |  |  |  |  |  |  | 0.09 | 1.11 | 3420 nM | 192 nM | H237-MB611/MRAL-k0 (antibody, mouse IgG1, kappa, copies: 2 + 2) heavy: QVQLQESGPGLVKPSETLSLTCAVSGHSISHDHAWSWVRQPPGEGLEWIGFISYSGITNYNPSLQGRVTISRDNSKNTLYLQMNSLRAEDTAVYYCARSLARTTAMDYWGEGTLVTVSSAKTTPPSVYPLAPGSAAQTNSMVTLGCLVKGYFPEPVTVTWNSGSLSSGVHTFPAVLQSDLYTLSSSVTVPSSTWPSETVTCNVAHPASSTKVDKKIVPRDCGCKPCICTVPEEDEVFIFPPKPKDVLTITLTPKVTCVVVDISKDDPEVQFSWFVDDVEVHTAQTQPREEQFNSTFRSVSELPIMHQDWLNGKEFKCRVNSAAFPAPIEKTISKTKGRPKAPQVYTIPPPKEQMAKDKVSLTCMITDFFPEDITVEWQWNGQPAENYKNTQPIMDTDGSYFVYSKLNVQKSNWEAGNTFTCSVLHEGLHNHHTEKSLSHSPGK light: not shown
7 |  |  |  |  |  |  | 0.25 | 1.24 | 1270 nM | 171 nM | H237-MB600/MRAL-k0 (antibody, mouse IgG1, kappa, copies: 2 + 2) heavy: QVQLQESGPGLVKPSETLSLTCAVSGHSISHDHAWSWVRQPPGEGLEWIGFISYSGITNYNPSLQGRVTISRDNSKNTLYLQMNSLRAEDTAVYYCARSLARTTAMDYWGEGTLVTVSSAKTTPPSVYPLAPGSAAQTNSMVTLGCLVKGYFPEPVTVTWNSGSLSSGVHTFPAVLQSDLYTLSSSVTVPSSTWPSETVTCNVAHPASSTKVDKKIVPRDCGCKPCICEVPEESWVFIFPPKPKDVLTITLTPKVTCVVVDISKDDPEVQFSWFVDDVEVHTAQTQPREEQFNSTFRSVSELPIMHQDWLNGKEFKCRVNSAAFPAPIEKTISKTKGRPKAPQVYTIPPPKEQMAKDKVSLTCMITDFFPEDITVEWQWNGQPAENYKNTQPIMDTDGSYFVYSKLNVQKSNWEAGNTFTCSVLHEGLHNHHTEKSLSHSPGK light: not shown
8 |  |  |  |  |  |  | 0.09 |  | 3480 nM and 5870 nM | 118 nM and 211 nM | H237-MB657/MRAL-k0 (antibody, mouse IgG1, kappa, copies: 2 + 2) heavy: QVQLQESGPGLVKPSETLSLTCAVSGHSISHDHAWSWVRQPPGEGLEWIGFISYSGITNYNPSLQGRVTISRDNSKNTLYLQMNSLRAEDTAVYYCARSLARTTAMDYWGEGTLVTVSSAKTTPPSVYPLAPGSAAQTNSMVTLGCLVKGYFPEPVTVTWNSGSLSSGVHTFPAVLQSDLYTLSSSVTVPSSTWPSETVTCNVAHPASSTKVDKKIVPRDCGCKPCICEPNEVEFVFIFPPKPKDVLTITLTPKVTCVVVDISKDDPEVQFSWFVDDVEVHTAQTQPREEQFNSTFRSVSELPIMHQDWLNGKEFKCRVNSAAFPAPIEKTISKTKGRPKAPQVYTIPPPKEQMAKDKVSLTCMITDFFPEDITVEWQWNGQPAENYKNTQPIMDTDGSYFVYSKLNVQKSNWEAGNTFTCSVLHEGLHNHHTEKSLSHSPGK light: not shown

Source: US20150203577A1 (Chugai, published 2015)
